The record followed here is PMC12098241.

The target of experiment [1] is SIRPα-αMSLN^M4F5 local inhibitory checkpoint monoclonal antibody (LicMAb). Briefly: flow cytometry on cells; binding to SUIT-2-MSLN cells in the presence of 2.5 µM rhMSLN as competitor (Supplementary Figure S6b, c). For orientation: A flow cytometer gives signals particle by particle.
The target is the same in experiment [2]. Briefly: flow cytometry on cells; binding to SUIT-2-MSLN cells in the presence of saturating concentrations of soluble MSLN (Supplementary Figure S7a).

For the substance “recombinant human MSLN (rhMSLN) (from UniProt Q13421 37-598) (natural protein)”, the percent reduction of the binding of m2 to SUIT-2-MSLN cells by 2.5 µM rhMSLN in experiment [1] is 40%. Besides, the percent reduction of the binding of m2 to SUIT-2-MSLN cells by saturating soluble MSLN in experiment [2] amounted to 53%.
